Data published in patent publication US20230295751, “Biological Detection Sensor Chip and COVID-19 Test Kit” (published 2023).

Assays:
[1] = tested on: Negative control virus without spike protein; experiment: SPR; details: 5'-NH2 with 12C spacer
[2] = target: Bovine serum albumin (BSA) (Bos taurus, UniProt P02769 P02769:25-607); experiment: SPR
Chain of Bovine serum albumin (BSA) (P02769 25-607, one chain of several): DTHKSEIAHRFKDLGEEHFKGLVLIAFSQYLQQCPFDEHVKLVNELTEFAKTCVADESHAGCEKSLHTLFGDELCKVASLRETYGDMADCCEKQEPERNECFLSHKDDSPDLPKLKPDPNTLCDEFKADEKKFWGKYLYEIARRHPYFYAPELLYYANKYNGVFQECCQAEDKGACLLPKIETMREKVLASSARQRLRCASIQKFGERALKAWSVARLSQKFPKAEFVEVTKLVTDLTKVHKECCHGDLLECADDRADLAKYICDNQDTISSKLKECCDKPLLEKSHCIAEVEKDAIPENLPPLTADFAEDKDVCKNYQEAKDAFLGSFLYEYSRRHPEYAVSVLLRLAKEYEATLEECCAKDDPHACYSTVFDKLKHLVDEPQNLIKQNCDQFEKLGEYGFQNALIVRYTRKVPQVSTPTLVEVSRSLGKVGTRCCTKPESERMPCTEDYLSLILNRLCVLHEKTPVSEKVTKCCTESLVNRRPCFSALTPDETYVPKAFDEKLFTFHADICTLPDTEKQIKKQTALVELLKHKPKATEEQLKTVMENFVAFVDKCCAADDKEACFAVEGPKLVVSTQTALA

CAGCACCGACCTTGTGCTTTGGGAGTGCTGGTCCAAGGGCGTTAATGGACA [Capturing aptamer against SARS-CoV-2 SRBD]
binding [1]: 23 RU

B1: Capturing aptamer against SARS-CoV-2 SRBD (ssDNA)
DNA: CAGCACCGACCTTGTGCTTTGGGAGTGCTGGTCCAAGGGCGTTAATGGACA
modifications: 5'-NH2 with 12C spacer
binding result [2]: no binding
